The values that follow come from patent US20260209318A1 (NATIONAL UNIVERSITY OF SINGAPORE, published 2026).

Where a chain is given by its changes, count along the chain named.

The assay has as its target BQ.1.1 spike protein (SARS-CoV-2 variant BQ.1.1, UniProt P0DTC2 14-1273). Briefly: cell-based or functional assay.

B1: Ab9 (C68) (antibody, V domains shown)
VH: QVQLVQSGAEVKKPGASVKVSCKISGYTLTDFSIHWVRQAPGKGLEWMAGFDPEHRETIFAQKFQGRVAMTEATSTDTAYMELSSLRSDDTAVYYCATTGDFDSWRGYYLWGQGTLVTVSA
VL: DIQLTQSPSSVSASVGDSVTITCRASQGISRWLAWYQQKPGKAPRLLIYSASTLQSGVPSRFSGSGSGTDFTLTISSLQPDDFATYYCQHTNNFPFSFGPGTKVDIK
B1: the “IC50 (pVNT)” value is not above 550 ng/ml.

B2: Ab12 (H5) (antibody, V domains shown)
VH: EVQLLESGGGLVQPGGSLRLSCAASGFTFSGSDMSWVRQAPGKGLEWVSVIGGSGTYAYYSDSVKGRFTISRDNSKNMLFLQMNSLRAEDTAIYYCAKETGFLWFGELLDSWGQGALVTVSS
VL: DIQMTQSPSSLSASVGDRVTITCRASEAISNSLAWYQQRPGKAPRLLLYAAATLESGVPPRFSGSGSGTDFTLTISTLQPEDFATYYCQQYYSPPPRTFGQGTKVEIK
With B2, the “IC50 (pVNT)” value is not above 550 ng/ml.

B3: Ab22 (C9.1) (antibody, V domains shown)
VH: QVQLVQSGAEVKKPGSSVKVSCKASGGTFSSYGISWVRQAPGQGLEWMGRIIPSLSITNSAEKFQGRVTITADKSTSTAYMELSRLRSEDTALYYCARDFHPRYEFCDSTSCYDEWEPRMDVWGQGTTVTVSS
VL: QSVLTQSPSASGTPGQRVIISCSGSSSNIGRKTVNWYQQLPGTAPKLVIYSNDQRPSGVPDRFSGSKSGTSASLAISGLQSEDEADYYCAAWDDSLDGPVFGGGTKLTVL
Turning to B3, the “IC50 (pVNT)” value was not above 550 ng/ml.

B4: Ab25 (H10.2) (antibody, V domains shown)
VH: B3 VH with G26R, S31N, G33A, I70M, A79V, L93V, F106Y, D108S
VL: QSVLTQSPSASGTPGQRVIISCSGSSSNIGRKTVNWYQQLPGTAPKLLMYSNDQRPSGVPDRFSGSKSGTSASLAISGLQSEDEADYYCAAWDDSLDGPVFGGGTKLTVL
With B4, the “IC50 (pVNT)” value is not above 550 ng/ml.

B5: Ab14 (F9) (antibody, V domains shown)
VH: EVQLVESGGGLVQPGGSLRLSCATSGFTFDDFAMHWVRQGPGKGLEWVSGISWNSGKIAYTDSVKGRFSISRDNAKNSLYLQMNSLRPEDTALYYCTKDHAPSAILGDILTGFDPWGQGTLVT
VL: DIQMTQSPVSLSASVGDRVTITCRASQSISVYLNWYQQKPGKAPKLLMYAASILQSGVPSRFSGSGSATDFTLTITSLQPEDFATYFCQQSFTMPPTFGQGTNLEIK
Take B5: the “IC50 (pVNT)” value is not above 550 ng/ml.

B6: Ab7 (G1) (antibody, V domains shown)
VH: EVQLVESGGGLVKPGGSLRLSCAASGFTVSTYIINWVRQAPGKGLEWVSSITSESDYMFDADSVRGRFTISRDNAKNLVYLQMNSLRAEDTAVYYCARDQGAYSGYDLSPGGDAFDVWGQGTMVTVSS
VL: DIQMTQSPSTLSASVGDRVTITCRASQSISTWLAWYQQKPGKAPKLLIYKASNLESGVPSRFSGSGSGTEFTLTISRLQPDDSATYCCQHYNSYPYTFGQGTKVEIK
For the molecule B6, the “IC50 (pVNT)” value is not above 550 ng/ml.

B7: Ab8 (B9) (antibody, V domains shown)
VH: EVQLVQSRAEVKKPGESLKISCKGSGYSFTTYWIGWVRQMPGKGLEWMGIIRPGDSDTRYSPSFQGQVTISADKSITTAYLQWSSLKASDTAMYYCAMTYSGDQYDFWGQGTVVTVSS
VL: B6 VL with S30H, K39T, N53L, R77S, D81G, S83F, C87Y, P95S, Y96H
As for B7, the “IC50 (pVNT)” value is not above 550 ng/ml.

B8: Ab21 (E6.1) (antibody, V domains shown)
VH: QVQLVQSGAEVKKPGSSVEVSCKASGGTFSSYAISWVRQAPGQGLEWMGRIIPSLGITNSAENFQGRVTITADKSTSTVYMELSSLRSEDTAVYYCARDFHPLYQSCSSTSCYDEWEPRMDVWGQGTTVTVSS
VL: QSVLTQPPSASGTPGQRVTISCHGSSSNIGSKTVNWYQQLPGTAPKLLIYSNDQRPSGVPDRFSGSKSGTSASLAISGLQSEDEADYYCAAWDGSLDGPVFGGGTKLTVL
B8: the “IC50 (pVNT)” value is not above 550 ng/ml.

B9: Ab20 (C6.1) (antibody, V domains shown)
VH: EVQLVESGGGLVKPGGSLRLSCAASGFAFSTNGMNWVRQVPGKGLEWVSSISSTSEYTYYTESVKGRFTISRDNAKNSLFLQMNSLRAEDTAVYYCVRDRFGYYDVLASSYNVGFFQSWGQGALVTVSS
VL: DIQMTQSPSSLSASVGDGVTITCRASQDISNNLAWFQQKPGKAPKCLIYSASSLQSGVPLKFRGSGSGTDFTLSITSLDPEDFATYYCQQYISYPITFGQGTRLDIK
In the case of B9, the “IC50 (pVNT)” value is not above 550 ng/ml.

B10: Ab23 (B10.1) (antibody, V domains shown)
VH: QVQLVQSGAEVKKPGSAVKVSCKASGGTFSSYPITWVRQAPGQGLEWVGRAIPILGITSTAQKFQGRVTIIADKSTSTAYMELSRLRSEDTAVYYCARDFHPRYQDCDSTSCYDQWEPRMDVWGQGTTVTVSS
VL: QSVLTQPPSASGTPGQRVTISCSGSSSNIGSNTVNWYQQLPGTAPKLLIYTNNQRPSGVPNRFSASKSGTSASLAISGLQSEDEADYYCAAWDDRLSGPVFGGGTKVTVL
As to B10, the “IC50 (pVNT)” value is not above 550 ng/ml.

B11: Ab3 (C2.2) (antibody, V domains shown)
VH: QVQLVQSGAEVKKPGSSVRVSCEASGDTFSRYAISWVRQAPGQGLEWMGRIIPMFGMANSAQKFQARVTISADKSTSTAYMEVSSLRSEDTAVYYCATDTFYPNDGVHRMEYWGQGALVIVSS
VL: DIQMTQSPSSLSASVGDRVTITCRASQTISNYLNWYQQKPGKAPNLLIYGTSILQSGVPSRFSGSGSGTDFTLTISSLQPEDFATYYCQQSHSAPRTFGPGTKVDIK
In the case of B11, the “IC50 (pVNT)” value is not above 300 ng/ml, the “concentration required to effectively neutralize (pVNT)” value is 271 ng/ml and the “times less than the concentration of E7” value is approximately 2 times.

B12: Ab19 (F5.1) (antibody, V domains shown)
VH: EVQLVESGGGLVKPGGSLRLSCAASGFIFSRNGMHWVRQAPGKGLEWVSSIDNDGTYMYYADSVRGRFTVSRDNAKNSLFLQLNSLRAEDTAVYYCARDRFGYYDALTDSYNAGYFDSWGQGTLVTVSS
VL: DIQMTQSPSSLSASVGDSVTITCRASQDIYNYLAWFQQKPGKAPKSLIYTASKLESGVPSKFSGSGSGTDFTLTISSLQPEDFATYYCQQYHSSPITFGQGTRVEIK
For the molecule B12, the “IC50 (pVNT)” value was not above 550 ng/ml.

B13: Ab13 (D10) (antibody, V domains shown)
VH: EVQLVESGGGLVQPGRSLRLSCAASGFTFDEYAMHWVRQAPGKGLEWVSGISFNSGSVGYAGAAKGRFTISRDNAKKSLYLEMNSLRDEDTAFYYCAKDRGEHWLVRLFDSWGQGTLVTVSS
VL: DIQMTQSPSTLSASVGDRVTITCRPSQSIDRWLAWYQQKPGKAPTLLISAASSLETGVPSRFSGSGSGTEFTLTISSLQPDDFATYYCQQYNGYSMFGPGTKVEIK
For B13, the “IC50 (pVNT)” value is not above 550 ng/ml.

B14: Ab11 (D4) (antibody, V domains shown)
VH: QVQLQESGPRLVKPSGTLSLSCAVSGGPFSNTNWWSWIRQTPGKGLEWIGEINDSGNTVYNPALKSRVTMSVDKSKKQFSLNLHSLTAADTAVYFCARVWGHFDYWGQGVRVTVSS
VL: DIQMTQSPSSLYASVADRVTITCRASQGISNSLAWYQQQPGKAPQLLLYAASTLESGVPSRFSGSGSGTDFTLTISSLQPEDFATYYCQQYYSLRTFGGGTKVEIK
As to B14, the “IC50 (pVNT)” value is not above 550 ng/ml.

B15: Ab6 (K23) (antibody, V domains shown)
VH: EVQLVESGGGLVQPGGSLRLSCSASGFTFNNYVMHWVRQAPGKGLEYVSAINSNGGSTYYAGSVKGRFTISRDNSNNTLYLQMSSLRAEDTAVYYCIKDAGYYSSLGVDSWGQGTLVTVSS
VL: EIVLTQSPATLSLSPGERATLSCRASQSVGSYLAWFQQKPGQAPRLLIYDASYRATGIPARFSGSGSGTDFTLTISSLEPEDVGIYYCQQRSNWPQTFGGGTKVDIK
As for B15, the “IC50 (pVNT)” value is not above 550 ng/ml.

B16: Ab4 (G7.2) (antibody, V domains shown)
VH: QVQLVQSGAEVKKPGSSVKVSCEASGGTFSTYAISWVRQAPGQGLEWMGRIIPIFGIANYAQKFQGRVTITADKSTSTAYMEVSSLRSEDTAVYYCATTFYDHSSTYRTHSMDVWGQGTTVTVSS
VL: DIQMTQSPSSLSASVGDRVTITCRASQSISNYLNWYQQRPGKAPKLLIYAASGLQSGVPSRFSGSGSGTNFTLTISTLHPEDFATYYCQQTHSTPRAFGGGTKVEIK
As for B16, the “IC50 (pVNT)” value is not above 300 ng/ml, the “concentration required to effectively neutralize (pVNT)” value was determined as 48.4 ng/ml and the “times less than the concentration of E7” value was approximately 11 times.
